{"source": "patent US20170002075A1", "about": "(AbbVie / Abbott, published 2017)", "binders": {"B1": {"name": "anti-human RAGE monoclonal antibody 4E5 (murine, hybridoma-derived) (antibody, V domains shown)", "VH": "QVQLQQSGAELVRPGTSVKVSCKASGYAFNNYLIEWIKQRPGQGLEWIGVINPGSGGTNHNEKFKVKATLTADKSSSTAYIQLSSLTSDDSAVYFCARSAGTARARFAYWGQGTLVTVSA", "VL": "DIQMTQSPSSLSASLGERVSLTCRASQDIGSSLNWLQQEPDGTIKRLIYATSSLDSGVPKRFSGSRSGSDYSLTISSLESEDFVDYYCLQYASFPFTFGSGTKLEIKR", "notes": "also called mAb4E5; ML37-4E5"}, "B2": {"name": "anti-human RAGE monoclonal antibody 11E6 (murine, hybridoma-derived) (antibody, V domains shown)", "VH": "QIQLVQSGPELKKPGETVKISCKASGYTFTNFGMNWVKQAPGKGLKWMGYINTNTGESIYSEEFKGRFAFSLETSASTAYLQINNLKNEDTATYFCARSRMVTAYGMDYWGQGTSVTVSS", "VL": "DIVMTQSQKFMSTSVGDRVSITCKASQNVGTAVAWYQQRPGQSPKLLIFSASNRYTGVPDRFTGSGSGTDFTLTLSNMQPEDLADYFCQQYSSYPLTFGVGTKLELKR", "notes": "also called mAb11E6; ML37-11E6"}, "B3": {"name": "anti-human RAGE monoclonal antibody 7F9 (murine, hybridoma-derived) (antibody, V domains shown)", "VH": "EEKLEESGGGLVQLGGSMKISCVASGFTLSNYWMDWVRQSPEKGLEWIAEIRLKSNYYSTHYAESVKGRFSISRDDSKGSVSLQMDNLTAEDTGIYFCARNAYWYFDVWGTGTTVTVSS", "VL": "DIVMTQSHKFMSTSVGDRVSATCKASQDVGTSVAWYQQKLGQSPKLLIYWTSTRHTGVPDRFTGSGSGTDFTLTISNVQSEDLADYFCQQYNNYPLTFGDGTKLELKR", "notes": "also called mAb7F9; MAb 7F9"}}, "key": {"[1]": {"target": "T1, E. coli RAGE Construct #2, 6His-(Thr)-[RAGE (24-129)] (human)", "T1 construct": "Expressed in E. coli with an N-terminal 6His-(Thr) tag, which is part of the entry; also called RAGE protein #2", "T1 chain": "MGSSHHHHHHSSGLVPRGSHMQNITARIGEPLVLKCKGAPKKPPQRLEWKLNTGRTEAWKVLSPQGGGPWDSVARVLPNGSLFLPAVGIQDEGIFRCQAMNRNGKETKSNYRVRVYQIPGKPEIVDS", "assay": "ELISA: RAGE 24-129 (E. coli, D#1474) coated, mAb titrated, anti-mouse HRP conjugate, TMB", "protocol": "(§1) Antigens (purified construct #1-7 proteins) were diluted into Coating Buffer [100 mM NaHCO₃, pH 8.2] to 1 μg/ml, and 100 μl of the resulting solution was then aliquoted into a 96-well Nunc Immuno Plate (Maxi-Sorb Surface, flat bottom, catalog #439454). The plate was sealed with sealing film and incubated at 4° C. overnight. The next day, the plate wells were each washed 3 times with 150 μL PBST buffer [Sigma PBS+0.05% Tween 20]. Then 300 ul of blocking solution (3% NFDM in PBST) was added to each well. The plate was incubated for 2 hours at room temperature and shaking at 100 rpm. After the incubation step, each well was again washed three times with 150 uL PBST. […] The plate was then sealed with sealing film and incubated for 2 hours at room temperature and shaking at 100 rpm. Next the antibody solution was drained out of the wells, and each well then washed three times with 200 ul PBST. To each well then 200 ul of a 1:5000 dilution (in PBST/1% NFDM) of conjugated secondary antibody [Donkey anti-mouse HRPO conjugate, Jackson Immuno Research, Catalog #715-035-150] was added. The plate was covered and allowed to incubate for 1 hour at room temperature while shaking at 100 rpm. Following this incubation, the solution was removed from the wells and each well was washed three times with 200 ul PBST. To each well 100 μL of HRPO substrate [3,3′,5′,5′-Tetramethylbenzidine Liquid Substrate (TMB), Supersensitive for ELISA, Sigma Catalog #T4444] solution was added and the plate incubated at room temperature for 10 minutes. Finally, 50 μL of 2M H₂SO₄ was added to each well to stop the reaction and the A₅₄₀ₙₘ of each well was measured using a microtiter plate reader."}, "[2]": {"target": "T2, E. coli RAGE Construct #3, 6His-(Thr)-[RAGE (24-234)] (human, UniProt Q15109 24-234)", "T2 construct": "Expressed in E. coli with an N-terminal 6His-(Thr) tag, which is part of the entry; also called RAGE protein #3", "assay": "ELISA: RAGE 24-234 (E. coli, D#1475) coated, mAb titrated, anti-mouse HRP conjugate, TMB", "protocol": "as §1"}, "[3]": {"target": "T3, E. coli RAGE Construct #4, 6His-(Thr)-[RAGE (24-336)] (human, UniProt Q15109 24-336)", "T3 construct": "Expressed in E. coli with an N-terminal 6His-(Thr) tag, which is part of the entry; also called RAGE protein #4", "assay": "ELISA: RAGE 24-336 (E. coli, D#1476) coated, mAb titrated, anti-mouse HRP conjugate, TMB", "protocol": "as §1"}, "[4]": {"target": "T4, E. coli RAGE Construct #6, 6His-(Thr)-[RAGE (130-336)] (human, UniProt Q15109 130-336)", "T4 construct": "Expressed in E. coli with an N-terminal 6His-(Thr) tag, which is part of the entry; also called RAGE protein #6", "T4 sequence (Q15109 other isoform, or with tags, fused parts or gaps limits assumed)": "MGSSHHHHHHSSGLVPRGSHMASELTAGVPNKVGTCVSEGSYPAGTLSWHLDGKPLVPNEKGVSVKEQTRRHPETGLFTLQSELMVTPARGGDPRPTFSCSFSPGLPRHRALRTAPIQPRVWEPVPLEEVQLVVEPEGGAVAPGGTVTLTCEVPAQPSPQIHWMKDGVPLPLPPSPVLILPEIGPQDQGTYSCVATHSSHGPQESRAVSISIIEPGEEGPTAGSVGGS", "assay": "ELISA: RAGE 130-336 (E. coli, D#1478) coated, mAb titrated, anti-mouse HRP conjugate, TMB", "protocol": "as §1"}, "[5]": {"target": "T5, hRAGE (1-331) / human sRAGE 1-331, V#400 (human, UniProt Q15109 23-331)", "T5 construct": "also called sRAGE [RAGE (1-331)]; RAGE (antigen of the Biacore runs)", "T5 sequence (Q15109 23-331)": "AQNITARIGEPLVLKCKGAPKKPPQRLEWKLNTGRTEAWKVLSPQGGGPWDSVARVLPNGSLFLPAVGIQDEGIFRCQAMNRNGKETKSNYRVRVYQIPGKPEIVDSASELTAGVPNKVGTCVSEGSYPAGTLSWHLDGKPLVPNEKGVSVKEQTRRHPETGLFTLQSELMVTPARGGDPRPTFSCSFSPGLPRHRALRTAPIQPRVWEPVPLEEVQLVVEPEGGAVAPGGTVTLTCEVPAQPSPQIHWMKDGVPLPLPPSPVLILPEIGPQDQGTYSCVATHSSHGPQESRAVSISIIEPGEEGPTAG", "assay": "Biacore 2000 SPR, mAb captured via anti-mouse Fc, RAGE injected 20-0.31 nM, HBS-EP+ buffer, 1:1 fit", "protocol": "The assay format for mAb affinity analysis was Fc-based capture via immobilized anti-Fc antibodies. A standard amine coupling protocol was employed to immobilize Fc-specific IgG via primary amines to the carboxy-methyl (CM) dextran surface of CM5 sensorchips (Biacore). […] Briefly, the CM-dextran surfaces were activated by freshly prepared 1:1 50 mM N-hydroxysuccinimide (NHS):200 mM 3-(N,N-dimethylamino) propyl-N-ethylcarbodiimide (EDC). Then the anti-Fc IgG capture reagent (20 ug/ml in 10 mM sodium acetate, pH4.5) was applied to the surface followed by deactivation of the surface and blocking of the residual reactive sites with 1M ethanolamine (pH 8.5).\nEach experimental cycle consisted of the following steps: 1) anti-RAGE mAbs were captured in flowcells 2, 3 or 4 to a level of 50-200 RU (depending on the antigen). All measurements were referenced against flowcell 1 which had no captured anti-RAGE mAb. […] 3) the anti-Fc capture surface was regenerated with low pH glycine.\nBriefly, the data were double referenced by first, subtracting the signal from the reference cell and second, by subtracting the signal from buffer-only injections."}, "[6]": {"target": "T6, recombinant human RAGE (plate coat of the competition ELISA of Example 1.4)", "T6 construct": "not shown: The carrier of the coated preparation, if it had one", "T6 sequence (chain, as listed by the source limits assumed)": "as the sequence (Q15109 23-331) above", "assay": "competition ELISA on plates coated with recombinant human RAGE (2 µg/mL); competitor: biotinylated hybridoma-derived 11E6 (11E6-biotin), streptavidin-HRP, OD 450 nm; the unit comes from the axis 'Log MAbs (M)'", "protocol": "The purified chimeric anti-human RAGE monoclonal antibodies were tested for their ability to bind human RAGE in a competition ELISA. […] Equal volumes (50 μL) of each recombinant chimeric anti-human RAGE monoclonal antibodies or hybridoma-derived anti-human RAGE monoclonal antibodies and each corresponding biotinylated hybridoma-derived anti-RAGE mAbs were mixed. 50 μL of this mixture was then added to ELISA plates pre-coated with recombinant human RAGE at 2 μg/mL and incubated for 1.5 hours at room temperature. Wells were washed three times with PBS+0.05% Tween-20. Streptavidin HRP (1 mg/mL) was diluted 1:16000 in PBST+10% Superblock; 50 µL/well was added and the plates incubated for 1 hour at room temperature. Plates were washed 3 times with PBS+0.05% Tween-20. 50 µL of TMB solution (Sigma, St Louis, Mo.) was added to each well and incubated for 10 minutes at room temperature. The reaction was stopped by addition of IN sulphuric acid. Plates were read spectrophotometrically at a wavelength of 450 nm."}, "[7]": {"target": "T7, E. coli RAGE Construct #1, OmpA-[RAGE (23-340)]-6His (human, UniProt Q15109 23-340)", "T7 construct": "Not glycosylated (E. coli); also called RAGE protein #1; E. coli-expressed sRAGE", "T7 sequence (Q15109 other isoform, or with tags, fused parts or gaps limits assumed)": "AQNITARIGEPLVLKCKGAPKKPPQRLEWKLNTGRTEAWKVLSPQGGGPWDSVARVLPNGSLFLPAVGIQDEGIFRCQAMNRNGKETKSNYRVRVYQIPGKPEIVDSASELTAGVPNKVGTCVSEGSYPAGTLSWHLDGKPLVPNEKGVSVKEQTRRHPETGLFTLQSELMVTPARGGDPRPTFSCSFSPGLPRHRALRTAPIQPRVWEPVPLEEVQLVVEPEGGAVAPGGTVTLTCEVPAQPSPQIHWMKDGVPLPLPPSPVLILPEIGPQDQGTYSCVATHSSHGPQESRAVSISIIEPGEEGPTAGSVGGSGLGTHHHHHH", "assay": "ELISA, fragment coated at 1 µg/ml", "protocol": "as §1, with “Following this incubation, the solution was removed from the wells and each well was washed three times with 200 ul PBST. To each well 100 μL of HRPO substrate [3,3′,5′,5′-Tetramethylbenzidine Liquid Substrate (TMB), Supersensitive for ELISA, Sigma Catalog #T4444] solution was added and the plate incubated at room temperature for 10 minutes.” left out"}}}
{"binder": "B1", "values": [{"measurement": "binding result", "setting": "[1]", "value": "no binding"}, {"measurement": "binding result", "setting": "[2]", "value": "no binding"}, {"measurement": "EC50 (read off the curve)", "setting": "[3]", "value": "~0.2", "unit": "nM"}, {"measurement": "EC50 (read off the curve)", "setting": "[4]", "value": "~0.5", "unit": "nM"}, {"measurement": "Kd", "setting": "[5]", "value": 2.2, "unit": "nM"}]}
{"binder": "B2", "values": [{"measurement": "binding result", "setting": "[1]", "value": "no binding"}, {"measurement": "binding result", "setting": "[2]", "value": "no binding"}, {"measurement": "EC50 (read off the curve)", "setting": "[3]", "value": "~0.2", "unit": "nM"}, {"measurement": "EC50 (read off the curve)", "setting": "[4]", "value": "~0.6", "unit": "nM"}, {"measurement": "Kd", "setting": "[5]", "value": 0.29, "unit": "nM"}, {"measurement": "EC50", "setting": "[6]", "value": 90.9, "unit": "nM"}]}
{"binder": "B3", "values": [{"measurement": "binding result", "setting": "[7]", "value": "no binding"}, {"measurement": "binding result", "setting": "[1]", "value": "no binding"}, {"measurement": "binding result", "setting": "[2]", "value": "no binding"}, {"measurement": "binding result", "setting": "[3]", "value": "no binding"}, {"measurement": "binding result", "setting": "[4]", "value": "no binding"}, {"measurement": "Kd", "setting": "[5]", "value": 0.11, "unit": "nM"}]}
